The nanobody polyreactivity screen of Harvey et al. (2022)

Assay: yeast display, Sf9 membrane polyspecificity reagent, FACS + sequencing; frameworks hold sequencing errors
In short: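 Nanobodies from a synthetic yeast display library (Saccharomyces cerevisiae BJ5465), induced 36–48 hours with galactose, were stained 1 hour at 4 °C with 10% biotinylated, detergent-solubilized Sf9 membrane reagent, enriched on streptavidin microbeads, then FACS-sorted. Anti-HA (expression) and streptavidin (reagent binding) fluorescence set low and high (top ~1%) gates. Polyreactivity labels come from the gate of origin. Genes were colony-PCR amplified, MiSeq 2 × 250 sequenced and filtered by CDR length.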

Sequence | polyreactivity (PSR sort gate)
QGQIVESGGGLGQAGGSLRLSCAASGSIFWANAMGWYSQSPWKERELVAAISSSGGRTYYADSVKGRFTISRDNAKNTVYLQMNSLKPEDTAVHYCNKLRLPYYEQGDYWGQGTQVTVSS | high polyreactivity
QGQLEDSGGGLVQAGGSLRLSCAASGFSFRSYGMGRYRQAPGKERELVAVISRSGGNTYYAASVKGRFTISRHNAKNTVYLQMHSLKPEDTAVYYCAATLVGTVIRRFDDWGQGTQVTVSS | high polyreactivity
QGQLEESGGGLVQAGGSLRLSCAAAGITFVDYSMGWYRQAPGKEMELVAGINWSGDGTSYADSVKGRFTISRDNAKNTVYLLMNSLKPEDTAVYDCAAYWYYYLMDYWGQGTQVTVSS | low polyreactivity
QGQLGESGGGLVQAGGSLRLTCAASGNIFFVYAMGWYRQAPGNEWELVAAITWGGGSTNYADSVKGRFTISRDNAKKTVYLQMNSLKPEDTAVYYCATDNRYVVDSYYWGQGTQVTVSS | high polyreactivity
QGQLLESGGGLVQAGGSLRLSCAASRFNFRFYAIGWYRQAPGKERELVASITQGGSTYYADSVKGSFTISRDNAKNTVYLQMNSLKPVDTAVYSCAARYLGGRRSGDYSRYYWGQGTQVSVSS | high polyreactivity
QGQLVDSGGGLVQAGGSLRLSCAASGSTFKNNAMGWYRQAPGKEREFVASISKRGGSTYYADSVKGRFTISRDNAKNTVYLQMNSMKPEDTAVYYCAKTYWSYGLSHGDYGEFDYWGQGTQVTVSS | high polyreactivity
QGQLVESAGGLVQAGGSLRLSCAASGSILWHYAMGWYRQAHGKERELVAAISGSGSTIYADSVKGRFTISRDNAKNTVYLQLITLKPEDTADYYCARVHGTSESKYYYWGQGTQVTVSL | low polyreactivity
QGQLVESGAGLVKAGGSLRISCAASGYTFPSNARAWYRHAPGTPRQLVAAISSGGRTNYADSLKGRFTISRDNAKNTVYLQMNRLKPEDTAVYNCNADGGPGYPSAYDYWVQGTQVTVSS | low polyreactivity
QGQLVESGGCLVQAGGSLRLSCAASGRTFYRNAMCLYRQSPGKERELVAVISSSGVRTYYADSVKGRFTISRDNAKNTVYLQMNSLKPEDTAVYYCAADSNSYYRGFDYWGQGTQVTVSS | high polyreactivity
QGQLVESGGGLVQAAGSLSLSCAASGRIYPYAMGWYRQAPGKERELVAAIPVNDGSTYYADSVTGRFTIARDNAMISVDLQMNSRKPEVSAVYYWKADYPIGWRNQYVQILYDYWGQGTQVTVSS | low polyreactivity
QGQLVESGGGLVQAGGSLPLSCAASGFTFRWNTMGWSRQGPGKEREFVASISQRGGRTFYADSVKGRFTISRDNAKNTVYIQMNCQKPEDTAVYFCNARGHRAVPGDELGYWGQGTQVTVSS | low polyreactivity
QGQLVESGGGLVQAGGSLRISCGASGYIFGDKAMGWYRPEPGKARELVAAITQTGANTYYADSVMGRFTISRDNAKNTVYLQMNSLKPEDSAVYYCNKVSVVYSRSKGFYYTYLKYEFWGQGTQVTVSS | low polyreactivity
QGQLVESGGGLVQAGGSLRLSCAASGFIFSIYAMGWYRQAPGKDRELVAGIDNGGGTYYADSGKGRFTISRDNAKNTVYLQMNRLKPEDTAVYYCAADTYSIGELYDYWGQGTQVTVSS | low polyreactivity
QGQLVESGGGLVQAGGSLRLSCAASGFTFDYYAMGWYRQAPGKARELVAAITTAASTNYADSVKGRFTISRDTAKNTVYFQMNSLKPEDTAVYYCAASWWPWYISWDDYWGQGTQVTVSS | high polyreactivity
QGQLVESGGGLVQAGGSLRLSCAASGFTFPHYAMGWYRQAPGKERELVAAISWSGGSTFSADSVKGRFTISRDTAKNNVYLQMNSLKPADTAVYYCAARSRSWTPYYYWGQGTQVTVSS | high polyreactivity
QGQLVESGGGLVQAGGSLRLSCAASGFTFTSNAMGWYRQAPGQERELVAVISTRGGSTFYADSGKGRFTISRDNAKNTVYLQMNSLKPEDTAVYYCAADSTDYRWTAYYWGQGTQVTVSS | high polyreactivity
QGQLVESGGGLVQAGGSLRLSCAASGFTLLPYAMGWYRQAPGKERELVAAISRRGVSTYYADSVKGRFTISRDNAKNTVYLQMISLKPEDTAVYYCAAKYRKWPMDYWGQGTQVTVSS | high polyreactivity
QGQLVESGGGLVQAGGSLRLSCAASGIIFGGYTMGWYRQAPGKERELVAAITKRTDRTYYADSVKGRFTISRDNAKNTVYLQMHSMKPEDTAVYYCATRGGITRPWYGYDYWGQGTQVTVSS | high polyreactivity
QGQLVESGGGLVQAGGSLRLSCAASGLIFVWYAMGWYRQARGKERELVAAISWSGGSTYYADSVKGRFTISRDNAKNTVYLQMNSLKPEDTAVYYCATDPYGYSYLLVDYNYWGQGTQVTVSS | low polyreactivity
QGQLVESGGGLVQAGGSLRLSCAASGRIFRANAMGWYRQAPGKERELVAAIDASGGSTYYADSVKGRFTISRDNAKNTVYLQMNSLKPEDTAVYDCAADRGFLRSFAPGNMDYWGQGTQVTVSS | low polyreactivity

Sequence | polyreactivity (PSR sort gate)
QGQLVESGGGLVQAGGSLRLSCAASGRTFWYYTIGWYRQAPGKERELVAAISSGGRTNYADSVKGRFTISRDNAKNPVYLQMNSLKPEDTAVYYCASSRYYKYVERDYWGQGTQVTVSS | high polyreactivity
QGQLVESGGGLVQAGGSLRLSCAASGSIFDLNAMGWYRQAPGKERELVAAISSGGGTYYADSVKGRFTISRDNAKNTVYLQMNCLKPEDTAVYYCNRVTRWTYNYWGQGTQVTVSS | high polyreactivity
QGQLVESGGGLVQAGGSLRLSCAASGSIFTFYTLGWYREAPGKVRELVAAINWSGSRTYYAASVKGRFTISRDNAKNTVYLQMNSLKPEDTAVYYCNAAIRYDWYQVLWNFSRESNYWGQGTQVTVSS | high polyreactivity
QGQLVESGGGLVQAGGSLRLSCAASGSIFVQNAMGWYRQAPGKEREFVAVINSGDSTNYADSVKGRFTISRDIAKNTVYLQMNSLKADDTAVYYCAVDDVSYYYLRAYNYELSWYGSGLDYWGQGTQVTVSS | low polyreactivity
QGQLVESGGGLVQAGGSLRLSCAASGSTFRNYAMGWYRQAPGKERELVAAISGSGGRTNYADSVKGRFTISRDNAKNTVYLQMNSLKPEDTAVYYCNARFPDWALSEISLSTTYGYWGQGTQVTVSS | low polyreactivity
QGQLVESGGGLVQAGGSLRLSCAASGSTIPVNAMAWYRQAPGKERELVAAITWGDGSTSYADSVKGRFTISRDNAKNTVYLQMNSLKPEDTAVYYCNKDFIYGYDAASYRPEYDYWGQGTQVTVSS | low polyreactivity
QGQLVESGGGLVQAGGSLRLSCAASVFTFAFYTMGWYRQATGKERELVAANTRSGGSTYYPDSVKGRFTISRDNAKNTVYLQRNSLKPEDTPVYYCAARGNTPRTRRYGYWGQGTQVTVSS | high polyreactivity
QGQLVESGGGLVQAGGSLRLSCAAYGSIYRNYAMGSYRQAPGKEREFVAAITTRGGRTYYADSVKGRFTISRDNAKNPVYLQINSLKPEDTAVYYCAARSYSEYNYWGQGTLVTVSS | high polyreactivity
QGQLVESGGGLVQAGGSLRLSCPASGRTFYGYAMGWYRQAPGKERELVAAITSSGGSTYYADSVKGRFTISRDHAKNTVYLQMNSLIPEDTAVYYCAAPSSRGQGRNFDYWGQGSQVTVSS | high polyreactivity
QGQLVESGGGLVQAGGSLRLSSAASGSTFAHYAMGWYRQAPGKERELVAAISRGGGSTYYADSVKGRFTISRDNAKNTVYVQMNSLKPEDTAVYYCAADPRYRVTLGFDYWGQGTQVTVSS | high polyreactivity
QGQLVESGGGLVQAGGSLSLSCAASRLTFYSNAMGWYRPAPGKEREMVAAISWIGASTYYADSVKGRFPISRDNAKNTVYLQMNSLKPEDTAVYYCAARAQARVFGWRFYYWGQGTQVTVSS | high polyreactivity
QGQLVESGGRLVQAGGSLRVSCAASGLTFNYYAMRWYRPAPGKERELVASISRSGGSTYYADSVKGRFTISRDNAKNTVYLQMNSLKPVDTAVYYCAAYRRRTYAVNKEGGYWGQGTQVTVSS | high polyreactivity
QGQLVESGRGLVQAGGSLRLSCAASGRIFYSYAMGWYRQAPGKERELVAAISSGGSTKYADSVKGRFTISRDNAKNTVYLQMNSLKPEDTAVYYCAARTYQKGGRYYYWGQGTQVTVSS | high polyreactivity
QGQLVESRGGLVQAGGSLRLICAASGFIFFIKSMGWYRQAPGKERELVAAINWTGGSTYADSVKGRFTISRDNAKNTVYLQMNSLKPEDTAVYYCAADPWDIYRRLSQGDHDYWGQGTQVTVSS | low polyreactivity
QGQLVETGGGLVQAGGSLRLSCAASGRSSVSMLMGWYRQPPGKERELVARITGSGGSTFYADSVKGRFTISRDNAKNTVYLQMNSLIPEDTAVYYCAAGYLWRGRYNYWGQGTQVTVSS | high polyreactivity
QGQLVETGGGLVQAGGSLRLSCDASGSIFYSNRGSYRQAPGKESEFVSAISGSGVRTYYADSLKGRFTISRDNAKNTVYLQMNSLKPEDNEVYYCNAGRRQDYRYNYWGQGTQVTVSS | high polyreactivity
QGQPVESGGGLVQAGGSLRLSCAASGLIFRWYAMGWNRQAPVQEREVVAAISWSGASTYYADSVKGRFTISRDTPKNTVYLQMNSLKPDDTAVYYCAADYGYYGAGSYFDRGDYWGQGTQVTVSS | high polyreactivity
QGQRVESAGGLVQAGGSLRLSCAASGITFARNVMGWSRQAPGQERELVAAISRGDSTYYADSVKGRFTISRDNAKNTVYLQLNSLKPEDTAVYYCAAAVKHVAYHYNYWGQGTQVTVSS | high polyreactivity
QGQRVESGGGLVQAGGSLRLSCAASGSIFSYNTMGWYRQAPGKEREFVATIDWRDGSTYYADSVKGRFTISRDNAKNTVYLQMNSLKPEDTAVYYCATYYIVVEDNYWGQGTQVTVSS | high polyreactivity
QLKHEESRGGLVQAGGSLRLSCAASGSTIYTYVMGWYRQAPGNERELVAAISWSGSSTYYADSVKGRFTISRDNAKNTVYLHMNSLKPEDTAVYYCNADPSQHTSAGYSSYEYYYWGQGTQVTVSS | low polyreactivity
